{
  "source": "paper PMC3558466",
  "about": "“An Enzyme-Catalyzed Multistep DNA Refolding Mechanism in Hairpin Telomere Formation” (PLoS Biology, 2013)",
  "proteins": {"B1": {"name": "Selenomethionine-labeled TelA (enzyme, Agrobacterium tumefaciens C58, UniProt Q7CWV1 1-442, looked up)", "chain": "MLAAKRKTKTPVLVERIDQFVGQIKEAMKSDDASRNRKIRDLWDAEVRYHFDNGRTEKTLELYIMKYRNALKAEFGPKSTPLAICNMKKLRERLNTYIARGDYPKTGVATSIVEKIERAEFNTAGRKPTVLLRIADFIAAMNGMDAKQDMQALWDAEIAIMNGRAQTTIISYITKYRNAIREAFGDDHPMLKIATGDAAMYDEARRVKMEKIANKHGALITFENYRQVLKICEDCLKSSDPLMIGIGLIGMTGRRPYEVFTQAEFSPAPYGKGVSKWSILFNGQAKTKQGEGTKFGITYEIPVLTRSETVLAAYKRLRESGQGKLWHGMSIDDFSSETRLLLRDTVFNLFEDVWPKEELPKPYGLRHLYAEVAYHNFAPPHVTKNSYFAAILGHNNNDLETSLSYMTYTLPEDRDNALARLKRTNERTLQQMATIAPVSRKG", "modifications": "selenomethionine-labeled (eleven selenium sites per TelA monomer located)", "notes": "Protelomerase TelA, Agrobacterium tumefaciens C58, gene locus Atu_2523, full-length 442 residues; model covers residues 102-421; Phosphotyrosine complex trapped with the nicked suicide substrate DNAc; used for SAD phasing; also called SeMet-TelA; source: E. coli methionine auxotroph strain B834(DE3), selenomethionine-labeled; not shown: His-tag (20 residues), N-terminal, kept"}, "B2": {"name": "TelA Y201A (enzyme)", "chain": "B1 chain with Y201A", "notes": "Crystallised with DNAb; source: E. coli BL21, pBAD promoter, purified (Ni-NTA, Heparin-Sepharose)"}, "B3": {"name": "TelA R205A (enzyme)", "chain": "B1 chain with R205A", "notes": "Crystallised with DNAb6; source: E. coli BL21, pBAD promoter, purified (Ni-NTA, Heparin-Sepharose)"}, "B4": {"name": "TelA R255A (enzyme)", "chain": "B1 chain with R255A", "notes": "source: E. coli BL21, pBAD promoter, purified (Ni-NTA, Heparin-Sepharose)"}, "B5": {"name": "TelA, protelomerase from Agrobacterium tumefaciens C58, wild type (enzyme, UniProt Q7CWV1 1-442, looked up)", "chain": "B1 chain", "notes": "Protelomerase TelA, Agrobacterium tumefaciens C58, gene locus Atu_2523, full-length 442 residues; residues 102-421 ordered in the crystal models; In 4E0P and 4E0Y Tyr405 is joined to the cleaved DNA by a phosphotyrosine bond; in 4E0G orthovanadate bridges Tyr405 and the DNA ends; also called telomere resolvase; wild-type TelA; source: E. coli BL21, pBAD promoter, purified (Ni-NTA, …)"}},
  "note": "Changes are numbered by the printed parent chain.",
  "data": [
    {"molecular_target": "the molecule itself", "experiment": "crystal structure; TelA-DNA complexes (equal moles of protein monomer and DNA half-site), hanging drop vapor diffusion at 20°C, 5% PEG 4000, 10 mM Tris-HCl pH 7.4, 300 mM NaCl; one TelA per asymmetric unit, the dimer is generated by the crystallographic dyad; TelA is bound to DNA", "values": [
      {"protein": "B1", "stoichiometry N": 2},
      {"protein": "B2", "stoichiometry N": 2},
      {"protein": "B3", "stoichiometry N": 2},
      {"protein": "B4", "stoichiometry N": 2},
      {"protein": "B5", "stoichiometry N": 2}
    ]}
  ]
}
